# Assay results published in patent US20110118131A1 (published 2011).
# T1: Ep-CAM (UniProt P16422 24-265, limits assumed)
# T1 construct: Amine coupled to a CM5 chip in the Biacore assays
# T1 sequence (looked up): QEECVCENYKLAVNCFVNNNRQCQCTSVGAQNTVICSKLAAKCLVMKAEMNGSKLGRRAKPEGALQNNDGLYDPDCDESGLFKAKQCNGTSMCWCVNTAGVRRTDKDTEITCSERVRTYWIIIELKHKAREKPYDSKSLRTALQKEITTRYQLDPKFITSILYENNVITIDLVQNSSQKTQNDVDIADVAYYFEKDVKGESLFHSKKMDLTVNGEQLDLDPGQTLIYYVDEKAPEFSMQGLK
# Biological target: T1, Ep-CAM
# Test: Biacore, Fab periplasmic extract
Binder,binding result,fold difference in affinity vs parental ING-1 [fold]
"ING-1 light chain R101Y (Fab, V domains shown, Fab, periplasmic extract) VH: QIQLVQSGPELKKPGETVKISCKASGYTFTKYGMNWVKQAPGKGLKWMGWINTYTEEPTYGDDFKGRFAFSLETSASTANLQINNLKSEDTATYFCARFGSAVDYWGQGTSVTVSS VL: DIVMTQAAFSNPVTLGTSGSISCRSSKSLLHSNGITYLYWYLQKPGQSPQLLIYQMSNLASGVPDRFSSSGSGTDFTLRISRVEAEDVGVYYCAQNLELPYTFGGGTKLEMKR",no binding,
"ING-1 light chain Y37Q (Fab, V domains shown, Fab, periplasmic extract) VH: QIQLVQSGPELKKPGETVKISCKASGYTFTKYGMNWVKQAPGKGLKWMGWINTYTEEPTYGDDFKGRFAFSLETSASTANLQINNLKSEDTATYFCARFGSAVDYWGQGTSVTVSS VL: DIVMTQAAFSNPVTLGTSGSISCRSSKSLLHSNGITQLYWYLQKPGQSPQLLIYQMSNLASGVPDRFSSSGSGTDFTLRISRVEAEDVGVYYCAQNLELPRTFGGGTKLEMKR",,0.02
"ING-1 light chain Y37E (Fab, V domains shown, Fab, periplasmic extract) VH: QIQLVQSGPELKKPGETVKISCKASGYTFTKYGMNWVKQAPGKGLKWMGWINTYTEEPTYGDDFKGRFAFSLETSASTANLQINNLKSEDTATYFCARFGSAVDYWGQGTSVTVSS VL: DIVMTQAAFSNPVTLGTSGSISCRSSKSLLHSNGITELYWYLQKPGQSPQLLIYQMSNLASGVPDRFSSSGSGTDFTLRISRVEAEDVGVYYCAQNLELPRTFGGGTKLEMKR",,0.01
"ING-1 light chain S28N (Fab, V domains shown, Fab, periplasmic extract) VH: QIQLVQSGPELKKPGETVKISCKASGYTFTKYGMNWVKQAPGKGLKWMGWINTYTEEPTYGDDFKGRFAFSLETSASTANLQINNLKSEDTATYFCARFGSAVDYWGQGTSVTVSS VL: DIVMTQAAFSNPVTLGTSGSISCRSSKNLLHSNGITYLYWYLQKPGQSPQLLIYQMSNLASGVPDRFSSSGSGTDFTLRISRVEAEDVGVYYCAQNLELPRTFGGGTKLEMKR",no binding,
"ING-1 light chain S32N (Fab, V domains shown, Fab, periplasmic extract) VH: QIQLVQSGPELKKPGETVKISCKASGYTFTKYGMNWVKQAPGKGLKWMGWINTYTEEPTYGDDFKGRFAFSLETSASTANLQINNLKSEDTATYFCARFGSAVDYWGQGTSVTVSS VL: DIVMTQAAFSNPVTLGTSGSISCRSSKSLLHNNGITYLYWYLQKPGQSPQLLIYQMSNLASGVPDRFSSSGSGTDFTLRISRVEAEDVGVYYCAQNLELPRTFGGGTKLEMKR",no binding,
"ING-1 light chain S57Y (Fab, V domains shown, Fab, periplasmic extract) VH: QIQLVQSGPELKKPGETVKISCKASGYTFTKYGMNWVKQAPGKGLKWMGWINTYTEEPTYGDDFKGRFAFSLETSASTANLQINNLKSEDTATYFCARFGSAVDYWGQGTSVTVSS VL: DIVMTQAAFSNPVTLGTSGSISCRSSKSLLHSNGITYLYWYLQKPGQSPQLLIYQMYNLASGVPDRFSSSGSGTDFTLRISRVEAEDVGVYYCAQNLELPRTFGGGTKLEMKR",no binding,
"ING-1 light chain Y54D (Fab, V domains shown, Fab, periplasmic extract) VH: QIQLVQSGPELKKPGETVKISCKASGYTFTKYGMNWVKQAPGKGLKWMGWINTYTEEPTYGDDFKGRFAFSLETSASTANLQINNLKSEDTATYFCARFGSAVDYWGQGTSVTVSS VL: DIVMTQAAFSNPVTLGTSGSISCRSSKSLLHSNGITYLYWYLQKPGQSPQLLIDQMSNLASGVPDRFSSSGSGTDFTLRISRVEAEDVGVYYCAQNLELPRTFGGGTKLEMKR",,0.03
"ING-1 light chain Y54H (Fab, V domains shown, Fab, periplasmic extract) VH: QIQLVQSGPELKKPGETVKISCKASGYTFTKYGMNWVKQAPGKGLKWMGWINTYTEEPTYGDDFKGRFAFSLETSASTANLQINNLKSEDTATYFCARFGSAVDYWGQGTSVTVSS VL: DIVMTQAAFSNPVTLGTSGSISCRSSKSLLHSNGITYLYWYLQKPGQSPQLLIHQMSNLASGVPDRFSSSGSGTDFTLRISRVEAEDVGVYYCAQNLELPRTFGGGTKLEMKR",no binding,
"ING-1 light chain Y37S (Fab, V domains shown, Fab, periplasmic extract) VH: QIQLVQSGPELKKPGETVKISCKASGYTFTKYGMNWVKQAPGKGLKWMGWINTYTEEPTYGDDFKGRFAFSLETSASTANLQINNLKSEDTATYFCARFGSAVDYWGQGTSVTVSS VL: DIVMTQAAFSNPVTLGTSGSISCRSSKSLLHSNGITSLYWYLQKPGQSPQLLIYQMSNLASGVPDRFSSSGSGTDFTLRISRVEAEDVGVYYCAQNLELPRTFGGGTKLEMKR",,0.09

# Further lines, results first:
binding result,fold difference in affinity vs parental ING-1 [fold],Binder
,0.05,"ING-1 light chain T36D (Fab, V domains shown, Fab, periplasmic extract) VH: QIQLVQSGPELKKPGETVKISCKASGYTFTKYGMNWVKQAPGKGLKWMGWINTYTEEPTYGDDFKGRFAFSLETSASTANLQINNLKSEDTATYFCARFGSAVDYWGQGTSVTVSS VL: DIVMTQAAFSNPVTLGTSGSISCRSSKSLLHSNGIDYLYWYLQKPGQSPQLLIYQMSNLASGVPDRFSSSGSGTDFTLRISRVEAEDVGVYYCAQNLELPRTFGGGTKLEMKR"
no binding,,"ING-1 light chain S57Q (Fab, V domains shown, Fab, periplasmic extract) VH: QIQLVQSGPELKKPGETVKISCKASGYTFTKYGMNWVKQAPGKGLKWMGWINTYTEEPTYGDDFKGRFAFSLETSASTANLQINNLKSEDTATYFCARFGSAVDYWGQGTSVTVSS VL: DIVMTQAAFSNPVTLGTSGSISCRSSKSLLHSNGITYLYWYLQKPGQSPQLLIYQMQNLASGVPDRFSSSGSGTDFTLRISRVEAEDVGVYYCAQNLELPRTFGGGTKLEMKR"
,0.06,"ING-1 light chain Y37N (Fab, V domains shown, Fab, periplasmic extract) VH: QIQLVQSGPELKKPGETVKISCKASGYTFTKYGMNWVKQAPGKGLKWMGWINTYTEEPTYGDDFKGRFAFSLETSASTANLQINNLKSEDTATYFCARFGSAVDYWGQGTSVTVSS VL: DIVMTQAAFSNPVTLGTSGSISCRSSKSLLHSNGITNLYWYLQKPGQSPQLLIYQMSNLASGVPDRFSSSGSGTDFTLRISRVEAEDVGVYYCAQNLELPRTFGGGTKLEMKR"
no binding,,"ING-1 light chain T36R (Fab, V domains shown, Fab, periplasmic extract) VH: QIQLVQSGPELKKPGETVKISCKASGYTFTKYGMNWVKQAPGKGLKWMGWINTYTEEPTYGDDFKGRFAFSLETSASTANLQINNLKSEDTATYFCARFGSAVDYWGQGTSVTVSS VL: DIVMTQAAFSNPVTLGTSGSISCRSSKSLLHSNGIRYLYWYLQKPGQSPQLLIYQMSNLASGVPDRFSSSGSGTDFTLRISRVEAEDVGVYYCAQNLELPRTFGGGTKLEMKR"
,0.02,"ING-1 light chain Y37K (Fab, V domains shown, Fab, periplasmic extract) VH: QIQLVQSGPELKKPGETVKISCKASGYTFTKYGMNWVKQAPGKGLKWMGWINTYTEEPTYGDDFKGRFAFSLETSASTANLQINNLKSEDTATYFCARFGSAVDYWGQGTSVTVSS VL: DIVMTQAAFSNPVTLGTSGSISCRSSKSLLHSNGITKLYWYLQKPGQSPQLLIYQMSNLASGVPDRFSSSGSGTDFTLRISRVEAEDVGVYYCAQNLELPRTFGGGTKLEMKR"
,0.05,"ING-1 light chain Y54E (Fab, V domains shown, Fab, periplasmic extract) VH: QIQLVQSGPELKKPGETVKISCKASGYTFTKYGMNWVKQAPGKGLKWMGWINTYTEEPTYGDDFKGRFAFSLETSASTANLQINNLKSEDTATYFCARFGSAVDYWGQGTSVTVSS VL: DIVMTQAAFSNPVTLGTSGSISCRSSKSLLHSNGITYLYWYLQKPGQSPQLLIEQMSNLASGVPDRFSSSGSGTDFTLRISRVEAEDVGVYYCAQNLELPRTFGGGTKLEMKR"
